Data: US8513197B2, “Ganglioside epitopes for treating Guillain-Barre syndrome” (Georgia Regents University, priority 2009, dated 2013)
Where two headings read alike, the source gives them in different places. Blank lines part the entries; values can stand above or below the substance they belong to. No end group written: not given here.

Tests used:
[1] = Pharmacokinetic study of bPGD3-4 after i.p. single dose (streptavidin-coated ELISA of plasma); conditions: for tmax: normal Lewis rats
Experimental: Briefly, the plasma samples from the single-dose administration of bPGD3-4 were applied to the streptavidin-coated ELISA plates at serial double dilutions in 1% bovine serum albumin/phosphate buffered-saline (BSA/PBS) solution. […] After washing with 1% BSA/PBS buffer, each well was treated with an anti-mouse IgG horseradish peroxidase-conjugated antibody (Jackson ImmunoResearch Lab, West Grove, Pa., USA). This secondary antibody was pre-treated with rat IgG to eliminate contamination from any anti-rat IgG binding activity. Finally, the bound secondary antibody was visualized by a color-generating reagent (OPD Peroxidase Substrate in PBS; Sigma, St Louis, Mo., USA). Half-saturation absorbance values for plasma samples were estimated by serial plasma dilution curves of ELISA. The absorbances were then converted into values of plasma concentration using a standard serial dilution curve of rat serum containing authentic bPGD3-4.
A Micro-Renathane polyurethane cannula, 0.84 mm o.d.×0.36 mm i.d., (Braintree Scientific Inc., Braintree, Mass.) was inserted before dosing into the femoral vein of a female Lewis rat (n=9; body weight=200±20 g). […] Blood samples were centrifuged at room temperature and the plasma harvested. The plasma samples were stored at −60° C. to −80° C. until analyzed by a streptavidin-coated ELISA plate for determining the total concentration of bPGD3-4.
The following parameters were calculated: maximum-, minimum-, and average-observed plasma concentration (Cmax, Cmin, and Cav), areas under the plasma concentration-time curve from zero to infinite time (AUC) plasma clearance (CL), distribution half-life (t1/2α), and elimination half-life (t1/2β).

mAb R24 = test: Competitive inhibition ELISA: binding of mAb R24 to GD3-coated plate
Experimental: Subsequently, an aliquot (100 μl) was added to each well, and each well of the ELISA plate was coated with 0.1 μg GD3. The remaining binding activity of mAb R24 was determined by ELISA. Values are means±SD, n=6 individual experiments. […] The experiment at each dose was performed on three rats, and values are means±SD.
(§1) Antiganglioside antibody activity was evaluated for GM1, GM2, GD1a, GD1b, GT1b, GQ1b, GD3, and LOSGD3 by conventional ELISA method (Usuki et al., 2005. J Neurol Sci 232: 37-44). […] Before the ELISA plate assay, each well was treated with 1% BSA/PBS solution. […] After incubation, the reaction mixture was passed through a 0.22-μm syringe filter (Millipore Corp., Bedford, Mass.). Subsequently, 100 μl of the mixture was added to each well and incubated for 1 hr at room temperature. To each of the wells, a secondary antibody (horseradish peroxidase-conjugated anti-mouse IgG, 1:5,000 dilution in 1% BSA/PBS solution) was added and incubated for 1 hr at room temperature. Finally, the bound secondary antibody was visualized by addition of a color-generating reagent (OPD Peroxidase Substrate). The absorbance was measured at 492 nm with a microplate spectrophotometer (Bio-Rad, Hemel Hempstead, United Kingdom). The nomenclature of gangliosides is based on that of Svennerholm (Svennerholm, 1964. J Lipid Res 5: 145-155).
FIG. 8 illustrates the effect of GD3-like peptides on binding of R24 mAb to GD3 by ELISA. Each of the GD3-peptide mimics in solution (PGD3-1, PGD3-2, PGD3-3, PGD3-4, PGD3-5, or PGD3-6) was incubated with R24 mAb for 30 min at room temperature at various concentrations as indicated in the horizontal axis. An aliquot of the mixtures (100 μL), was added to each well of an ELISA plate coated with 0.1 μg of GD3. The remaining binding activity of R24 mAb was measured by ELISA. Values are mean±SEM, n=6 individual experiments.
(§2) Anti-ganglioside antibody activity was evaluated for GM1, GM2, GD1a, GD1b, GT1b, GQ1b, GD3, and LOSGD3 by conventional ELISA as previously described (Usuki et al., 2005. J. Neurol. Sci. 232:37-44). To measure half-maximal inhibitory concentrations (IC50s) of GD3-like peptides for binding of GD3 to mAb R24, each well of the ELISA plate (Immunlon 1B, Lab System, Franklin, Mass., USA) was coated with 0.1 μg of GD3, and prior to ELISA assay was treated by 1% BSA/PBS solution. The purified mAb R24 IgG (10 μg/mL by 1% BSA/PBS solution) was incubated with various concentrations of GD3-like peptides (PGD3-1, PGD3-2, PGD3-3, PGD3-4, PGD3-5, and PGD3-6) for 30 min. After incubation, the reaction mixture was passed through a 0.22-μm syringe filter (Millipore Corp., Bedford, Mass., USA), and 100 μL of the mixture was added to each well and incubated for 1 h at room temperature. A secondary antibody (horseradish peroxidase-conjugated anti-mouse IgG, 1:5000 dilution in 1% BSA/PBS solution) was applied, incubated for 1 h at room temperature, and visualized by addition of a color-generating reagent (OPD Peroxidase Substrate). The absorbance was measured at 492 nm with a microplate spectrophotometer (BioRad, Hemel Hempstead, UK).

[2] = test system: anti-GD3 antibody and anti-LOSGD3 antibody; test: Time course of serum anti-GD3 and anti-LOSGD3 antibody (ELISA) in immunized rats; type: in vivo, Lewis rats; conditions: peptide 1000 nmol/kg i.p. daily, from weeks 8, 11 and 14
Experimental: as §1
as §2, with “A secondary antibody (horseradish peroxidase-conjugated anti-mouse IgG, 1:5000 dilution in 1% BSA/PBS solution) was applied, incubated for 1 h at room temperature, and visualized by addition of a color-generating reagent (OPD Peroxidase Substrate).” left out

LOSGD3-sensitized rats [3] = test: Rotarod motor test; conditions: LOSGD3/peptide group vs LOSGD3 treatment group, week 17
Experimental: Twelve-week-old female Lewis rats weighing 200-250 g were used. One hundred micrograms LOSGD3 was dissolved in 50 mM PBS buffer with a vehicle of 0.05 ml keyhole limpet hemocyanin (KLH; 2 mg/ml) and emulsified with an equal volume of complete Freund's adjuvant (CFA). Rats were given a single subcutaneous injection of 0.1 ml inoculum (or vehicle) into the shoulders and the footpads of the hind limbs. In addition, booster injections were administered similarly to injections in LOSGD3 (or vehicle)-treated animals at 2-week intervals with 100 μg LOSGD3 (or no additive) and 2 mg/ml KLH in PBS emulsified with an equal volume of incomplete Freund's adjuvant (ICFA) 6 weeks thereafter. Sixteen experimental animals were divided into four groups (n=4 each): 1) LOSGD3, 2) LOSGD3/BEC2, 3) vehicle, and 4) vehicle/BEC2. The remaining animals were included as the untreated control group (n=4). As shown in the third and fourth stepladders of FIG. 2, BEC2 (5 mg kg^−1) was administered to rats once per week from 8 to 15 weeks.
A rat was placed on a rotating roller (4 cm in diameter), and the time for which the rat remained on the roller was measured. The test included eight trials; each trial was performed at an interval of 10 min; four trials were performed. An additional four trials were conducted after 24 hr. When the rat could stay on the rotating rod at a constant speed of 5 rpm for a cumulative duration of at least 2 sec, the rotation speed was increased by 0.2 rpm/sec.
Twelve-week-old female Lewis rats, weighing 200-220 g each, were used. One hundred micrograms of LOSGD3 was dissolved in 50 mM PBS buffer as vehicle, and with 0.05 mL of keyhole limpet hemocyanin (2 mg/mL) emulsified with an equal volume of complete Freund's adjuvant. A single subcutaneous injection of 0.1 mL of inoculum (or vehicle) was made into the rats' shoulders and hind limb footpads. […]

LOSGD3-sensitized rats [4] = test: Nerve conduction velocity (NCV) in rat tail nerve; conditions: LOSGD3/peptide-treated groups, week 16
Experimental: Twelve-week-old female Lewis rats, weighing 200-220 g each, were used. One hundred micrograms of LOSGD3 was dissolved in 50 mM PBS buffer as vehicle, and with 0.05 mL of keyhole limpet hemocyanin (2 mg/mL) emulsified with an equal volume of complete Freund's adjuvant. A single subcutaneous injection of 0.1 mL of inoculum (or vehicle) was made into the rats' shoulders and hind limb footpads. Additional booster injections were administered similarly to LOSGD3- (or vehicle-) treated animals at 2-week intervals with 100 μg of LOSGD3 (or no additive) and 2 mg/mL of keyhole limpet hemocyanin in PBS emulsified with an equal volume of incomplete Freund's adjuvant after 6 weeks. Forty-four experimental animals were grouped into 10 treatment paradigms (n=4 each): (i) LOSGD3, (ii) LOSGD3/PGD3-3, (iii) LOSGD3/PGD3-4, (iv) LOSGD3/PGD3-5, (v) LOSGD3/PGD3-6, (vi) vehicle, (vii) vehicle/PGD3-3, (viii) vehicle/PGD3-4, (ix) vehicle/PGD3-5, and (x) LOSGD3/PGD3-6. The remaining four animals were the untreated control group (n=4). […]
NCVs (m/s) were measured in the rat tail nerve using a Nicolet VikingQuest EMG machine (NeuroCare Group, Madison, Wis., USA) according to the method described previously (Usuki et al., 2006. J. Neurosci. Res. 83:274-284).

[5] = simulated, 1,000 nmol kg^−1 i.p. at 24-hourly intervals for 7 days
[6] = i.p. single dose 100.0 nmol kg^−1, mean (SD)
[7] = i.p. single dose 500.0 nmol kg^−1, mean (SD)
[8] = i.p. single dose 1000.0 nmol kg^−1, mean (SD)
[9] = as restated in Example 12, read-out: IC50 values for the active peptides

Cmax ([1]; read-out: Cmax, chronic simulation, simulated, 1,000 nmol kg^−1 i.p. at 24-hourly intervals for 7 days): 670 µM
Cav, chronic simulation [1, 5]: 340 µM
Cmin, chronic simulation [1, 5]: 0.33 µM
Substance: RHAYRSMAEWGFLYS [PGD3-4]

inhibitory activity on GD3 reactivity to mAb R24 (mAb R24; ELISA): little or no inhibitory activity
Substance: LAPPRPRSELVFLSV [PGD3-1, GD3-like peptide]

Substance: bPGD3-4: biotinylated product of GD3-like peptide PGD3-4 (RHAYRSMAEWGFLYS; also: biotinylated, site not given here)
AUC (zero to infinite time) [1, 6]: 130.0 (43.6) nmol mL^−1 hr
CL (plasma clearance) [1, 6]: 0.82 (0.24) mL hr^−1
Cmax [1, 6]: 70.8 µM
t1/2α (distribution half-life) [1, 6]: 0.48 (0.03) hr
t1/2β (elimination half-life) [1, 6]: 2.45 (0.27) hr
AUC (zero to infinite time) [1, 7]: 589.2 (72.9) nmol mL^−1 hr
CL (plasma clearance) [1, 7]: 0.86 (0.11) mL hr^−1
Cmax [1, 7]: 267 µM
t1/2α (distribution half-life) [1, 7]: 0.42 (0.03) hr
t1/2β (elimination half-life) [1, 7]: 2.45 (0.33) hr
AUC (zero to infinite time) [1, 8]: 1425.7 (78.8) nmol mL^−1 hr
CL (plasma clearance) [1, 8]: 0.71 (0.04) mL hr^−1
Cmax [1, 8]: 667 µM
t1/2α (distribution half-life) [1, 8]: 0.46 (0.03) hr
t1/2β (elimination half-life) [1, 8]: 2.76 (0.42) hr
tmax ([1]; i.p. single dose 100.0 nmol kg^−1, n = 3): 30 min
tmax ([1]; i.p. single dose 500.0 nmol kg^−1, n = 3): 30 min
tmax ([1]; i.p. single dose 1000.0 nmol kg^−1, n = 3): 30 min
death or toxicity after peptide administration ([1]; rats, i.p. single dose of 100, 500 and 1,000 nmol kg^−1): None of the experimental rats died or exhibited toxicity
linearity of pharmacokinetics ([1]; single-dose range 100-1000 nmol kg^−1): linear pharmacokinetics

Substance: SVAVPPPADDPSWRY [PGD3-6]
inhibitory activity on GD3 reactivity to mAb R24 (mAb R24; ELISA): remarkable inhibitory activities
IC50 (mAb R24; [9]): 250 nM
effect on serum anti-GD3 / anti-LOSGD3 antibody level [2]: no suppression of either anti-LOSGD3 or anti-GD3 antibodies
rotarod retention time / motor performance (LOSGD3-sensitized rats [3]): did not show any statistically significant differences

Substance: GLAPPDYAERFFLIS [PGD3-3]
inhibitory activity on GD3 reactivity to mAb R24 (mAb R24; ELISA): remarkable inhibitory activities
IC50 (mAb R24; [9]): 300 nM
effect on serum anti-GD3 / anti-LOSGD3 antibody level [2]: no suppression of either anti-LOSGD3 or anti-GD3 antibodies
rotarod retention time / motor performance (LOSGD3-sensitized rats [3]): did not show any statistically significant differences

inhibitory activity on GD3 reactivity to mAb R24 (mAb R24; ELISA): little or no inhibitory activity
Substance: PHFDSLLYPCELLGC [PGD3-2, GD3-like peptide]

Substance: ACTPYAMLPGCK [PGD3-5]
inhibitory activity on GD3 reactivity to mAb R24 (mAb R24; ELISA): remarkable inhibitory activities
IC50 (mAb R24; [9]): 100 nM
IC50 (mAb R24; read-out: IC50, competitive inhibition of GD3 reactivity to mAb R24, ELISA, 0.1 μg GD3 per well, as printed in Example 11): 100 nM
effect on serum anti-GD3 / anti-LOSGD3 antibody level [2]: effective in suppressing serum anti-GD3 antibody activity
rotarod retention time / motor performance (LOSGD3-sensitized rats [3]): did not show any statistically significant differences
effect on NCV (LOSGD3-sensitized rats [4]): less attenuation of NCV
